For the test, the target named is CXCL8 (human).

B1: Evasin 3 (EVA3) (natural protein)
chain: DGGLVSTIESRTSGDGADNFDVVSCNKNCTSGQNECPEGCFCGLLGQNKKGHCYKIIGNLSGEPPVVRR
modifications: also: glycosylated
Take B1: the neutralization of human CXCL8-induced granulocyte migration (Transwell, EC80 dose of CXCL8, EVA3 0.02–100 nM); mean IC50 of four biological replicates was 1.94e-09 M.

Values taken from PMC6643034.
